The values that follow are results of earlier work, collected in PMC3179904.

This data set deals with CheA (Escherichia coli) (UniProt P07363).
Sequence of UniProt P07363 (P07363 whole entry): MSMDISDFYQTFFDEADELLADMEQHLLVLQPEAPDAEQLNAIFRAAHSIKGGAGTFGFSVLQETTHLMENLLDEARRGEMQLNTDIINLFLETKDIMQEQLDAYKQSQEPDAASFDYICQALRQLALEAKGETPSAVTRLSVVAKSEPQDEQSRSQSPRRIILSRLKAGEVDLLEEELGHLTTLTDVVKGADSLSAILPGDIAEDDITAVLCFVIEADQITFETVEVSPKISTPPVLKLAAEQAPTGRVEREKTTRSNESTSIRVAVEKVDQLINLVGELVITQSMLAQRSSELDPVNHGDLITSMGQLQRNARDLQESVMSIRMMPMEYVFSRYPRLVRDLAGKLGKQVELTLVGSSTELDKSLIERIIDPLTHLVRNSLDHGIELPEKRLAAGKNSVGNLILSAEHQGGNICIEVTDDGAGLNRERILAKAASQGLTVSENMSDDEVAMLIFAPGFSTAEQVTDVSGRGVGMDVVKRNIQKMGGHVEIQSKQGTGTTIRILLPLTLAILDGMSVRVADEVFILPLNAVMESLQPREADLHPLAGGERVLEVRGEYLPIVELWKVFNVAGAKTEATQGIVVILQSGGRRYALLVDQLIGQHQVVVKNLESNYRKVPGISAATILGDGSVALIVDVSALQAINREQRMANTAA

Regarding CheW (from UniProt P0A964), the Kd was 17 µM.
